Laboratory results reported in PMC11407943, “Cdc14 phosphatases use an intramolecular pseudosubstrate motif to stimulate and regulate catalysis” (The Journal of Biological Chemistry, 2024).
Where a chain is given by its changes, count along the chain named. Starred links: 1 amine or outer side, 2 acyl side, 3 side chain; linkers in the order of their positions; H or OH if unused. Non-standard residues stand in square brackets, D forms with d. No end group written: not given here. pCF2‑Ser = (α,α-difluoromethylene)phosphonoserine, O=C([C@H](CC(F)(F)P(=O)(O)O)N[*:1])[*:2]

Tests used:
[1] = molecular target: T1, ScCdc14^1-449 (S. cerevisiae, UniProt Q00684 1-449); details: both partners purified
T1 construct: Expressed from pDEST17; also called Saccharomyces cerevisiae Cdc14 truncation that retains the SLiCE motif; source: E. coli, purified (HisTrap nickel sepharose)
T1 sequence (looked up): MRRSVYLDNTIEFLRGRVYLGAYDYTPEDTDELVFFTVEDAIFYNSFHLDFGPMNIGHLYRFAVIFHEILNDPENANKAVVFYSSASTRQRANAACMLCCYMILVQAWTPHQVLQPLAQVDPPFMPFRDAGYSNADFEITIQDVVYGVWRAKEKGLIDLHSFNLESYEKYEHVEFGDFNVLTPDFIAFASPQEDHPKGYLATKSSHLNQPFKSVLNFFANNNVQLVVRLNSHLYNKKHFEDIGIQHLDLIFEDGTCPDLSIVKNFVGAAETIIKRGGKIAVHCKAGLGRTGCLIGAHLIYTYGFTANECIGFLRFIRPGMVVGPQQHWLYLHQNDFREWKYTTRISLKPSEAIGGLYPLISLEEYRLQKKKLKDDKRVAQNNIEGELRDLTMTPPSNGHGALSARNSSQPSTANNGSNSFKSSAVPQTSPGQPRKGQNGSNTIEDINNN

[2] = molecular target: T2, ScCdc14^P433A/K435A (S. cerevisiae, UniProt Q00684 1-449, P433A | K435A); details: both partners purified
T2 construct: source: E. coli, purified (HisTrap nickel sepharose)
T2 sequence (looked up): T1 sequence (looked up) with P433A, K435A

EV[pCF2‑Ser]PTKR [EV(pCF2-Ser)PTKR] gave a Kd [1] of 6 ± 2 µM and a Kd [2] of 13 ± 4 µM.
